Assay results: paper PMC2518520

Key:
[1] = biological target: heterotrimeric Gq (Gαqβ1γ2) (UniProt P21279); assay: global least-squares fit of a kinetic model to steady-state GTPase rates; GTP-bound Gq species; purified proteins in unilamellar phospholipid vesicles; constants calculated from fitted rate constants (log average of 41 fits); protein concentrations counted on the bilayer volume, so association constants are about 13,000-fold higher than on the aqueous volume
[2] = biological target: complex of agonist-bound m1 muscarinic cholinergic receptor with heterotrimeric Gq (Gαqβ1γ2) (UniProt P11229); assay: global least-squares fit of a kinetic model to steady-state GTPase rates; GDP-bound Gq species; purified proteins in unilamellar phospholipid vesicles; constants calculated from fitted rate constants (log average of 41 fits); protein concentrations counted on the bilayer volume, so association constants are about 13,000-fold higher than on the aqueous volume
[3] = biological target: heterotrimeric Gq (Gαqβ1γ2) (UniProt P21279); assay: as above
[4] = biological target: complex of agonist-bound m1 muscarinic cholinergic receptor with heterotrimeric Gq (Gαqβ1γ2) (UniProt P11229); assay: global least-squares fit of a kinetic model to steady-state GTPase rates; nucleotide-free Gq species; purified proteins in unilamellar phospholipid vesicles; constants calculated from fitted rate constants (log average of 41 fits); protein concentrations counted on the bilayer volume, so association constants are about 13,000-fold higher than on the aqueous volume
[5] = biological target: heterotrimeric Gq (Gαqβ1γ2) (UniProt P21279); assay: as above
[6] = biological target: complex of agonist-bound m1 muscarinic cholinergic receptor with heterotrimeric Gq (Gαqβ1γ2) (UniProt P11229); assay: global least-squares fit of a kinetic model to steady-state GTPase rates; GTP-bound Gq species; purified proteins in unilamellar phospholipid vesicles; constants calculated from fitted rate constants (log average of 41 fits); protein concentrations counted on the bilayer volume, so association constants are about 13,000-fold higher than on the aqueous volume

Chain of m1 muscarinic cholinergic receptor (P11229 whole entry): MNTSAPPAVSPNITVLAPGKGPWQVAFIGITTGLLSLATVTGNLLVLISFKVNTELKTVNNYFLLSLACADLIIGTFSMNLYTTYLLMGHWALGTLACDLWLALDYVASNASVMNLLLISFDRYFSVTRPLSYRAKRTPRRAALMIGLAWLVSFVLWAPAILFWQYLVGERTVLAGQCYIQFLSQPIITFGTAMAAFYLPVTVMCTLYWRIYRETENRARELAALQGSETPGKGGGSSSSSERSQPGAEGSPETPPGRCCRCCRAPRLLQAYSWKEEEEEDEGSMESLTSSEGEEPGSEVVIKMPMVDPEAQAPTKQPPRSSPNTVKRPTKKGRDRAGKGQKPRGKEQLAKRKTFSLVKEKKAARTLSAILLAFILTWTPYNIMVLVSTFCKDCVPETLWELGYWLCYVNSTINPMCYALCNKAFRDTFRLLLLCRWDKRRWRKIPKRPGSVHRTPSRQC

Substance | fold faster dissociation with GTP bound [1] [fold] | Ka [2] [M⁻¹] | fold faster dissociation than from Gq-GDP without receptor [2] [fold] | t1/2 of dissociation [2] [s] | Ka [3] [M⁻¹] | Ka [4] [M⁻¹] | Ka [5] [M⁻¹] | Ka [6] [M⁻¹] | Ka [1] [M⁻¹]
m1 muscarinic cholinergic receptor (from UniProt P11229 1-460) | 70 | – | – | – | – | – | – | – | –
phospholipase C-β1 (from UniProt P10687 1-1216) (enzyme) | – | 2300 | 90 | 0.3 | 280000 | 560000 | 370000 | 390000 | 9.6e+06
